Reference: the supplement of paper PMC9112550, “Optimization of the antimicrobial peptide Bac7 by deep mutational scanning” (BMC Biology, 2022)

Tested on: Escherichia coli TOP10
Test: shrunken log2 fold change of peptide-encoding DNA abundance (4.5 h post-induction vs induction); higher = less antimicrobial activity (less host growth inhibition)
Settings: time post-induction: 4.5 h; library: site-saturation at positions 5, 18, 19, 20
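Also: peptides expressed intracellularly from a pBAD plasmid library in pooled LB shake-flask culture, induced with 0.3% L-arabinose, DNA abundance read by NGS, three biological replicates, DESeq2 with apeglm shrinkage.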

Sequence	shrunken log2 fold change
RRIRSRPPRLPRPRPRPDQAPRP	-0.107
RRIRPRPPRLPRPRPRPPNPPRP	0.453
RRIRLRPPRLPRPRPRPFSLPRP	-0.127
RRIRDRPPRLPRPRPRPPEQPRP	0.261
RRIRRRPPRLPRPRPRPMNAPRP	0.15
RRIRSRPPRLPRPRPRPQRYPRP	-0.167
RRIRLRPPRLPRPRPRPHTQPRP	-0.31
RRIRLRPPRLPRPRPRPPQCPRP	-0.313
RRIRGRPPRLPRPRPRPYFDPRP	-0.00956
RRIRARPPRLPRPRPRPVGNPRP	0.0787
RRIRFRPPRLPRPRPRPKNTPRP	-0.487
RRIRMRPPRLPRPRPRPCCPPRP	-0.0946
RRIRLRPPRLPRPRPRPGVWPRP	0.401
RRIRMRPPRLPRPRPRPGACPRP	0.73
RRIRFRPPRLPRPRPRPVAPPRP	0.243
RRIRIRPPRLPRPRPRPIKHPRP	-0.571
RRIRDRPPRLPRPRPRPERTPRP	0.12
RRIRHRPPRLPRPRPRPTRKPRP	0.00421
RRIRSRPPRLPRPRPRPDRCPRP	-0.115
RRIRTRPPRLPRPRPRPGSQPRP	0.0756
RRIRDRPPRLPRPRPRPERCPRP	0.426
RRIRNRPPRLPRPRPRPKCMPRP	-0.0394
RRIRVRPPRLPRPRPRPSQPPRP	-0.112
RRIRARPPRLPRPRPRPCREPRP	0.0197
RRIRIRPPRLPRPRPRPYSGPRP	0.00727

Sequence	shrunken log2 fold change
RRIRLRPPRLPRPRPRPVHTPRP	-0.0875
RRIRRRPPRLPRPRPRPLNNPRP	-0.338
RRIRWRPPRLPRPRPRPDYVPRP	-0.208
RRIRHRPPRLPRPRPRPKIVPRP	0.00911
RRIRKRPPRLPRPRPRPGGQPRP	0.108
RRIRMRPPRLPRPRPRPDLYPRP	0.0737
RRIRCRPPRLPRPRPRPQCGPRP	-0.609
RRIRARPPRLPRPRPRPDEQPRP	0.0992
RRIRVRPPRLPRPRPRPQFQPRP	-0.0795
RRIRQRPPRLPRPRPRPSWLPRP	-0.213
RRIRQRPPRLPRPRPRPNSFPRP	0.151
RRIRHRPPRLPRPRPRPHYIPRP	-0.35
RRIRERPPRLPRPRPRPRQVPRP	-0.0483
RRIRYRPPRLPRPRPRPKEDPRP	-0.122
RRIRQRPPRLPRPRPRPDTHPRP	-0.347
RRIRRRPPRLPRPRPRPKNVPRP	-0.00431
RRIRLRPPRLPRPRPRPLNVPRP	0.0831
RRIRQRPPRLPRPRPRPCFEPRP	0.0423
RRIRPRPPRLPRPRPRPNDIPRP	-0.632
RRIRERPPRLPRPRPRPQYLPRP	-0.0574
RRIRFRPPRLPRPRPRPGEMPRP	0.123
RRIRIRPPRLPRPRPRPRLVPRP	0.22
RRIRERPPRLPRPRPRPFMHPRP	-0.121
RRIRGRPPRLPRPRPRPIGPPRP	0.5
RRIRIRPPRLPRPRPRPYNFPRP	-0.99

Sequence	shrunken log2 fold change
RRIRQRPPRLPRPRPRPGYRPRP	-0.354
RRIRTRPPRLPRPRPRPSTPPRP	-0.195
RRIRARPPRLPRPRPRPFSTPRP	-0.572
RRIRMRPPRLPRPRPRPITIPRP	-0.315
RRIRHRPPRLPRPRPRPPMVPRP	0.0642
RRIRKRPPRLPRPRPRPNQAPRP	-0.171
RRIRTRPPRLPRPRPRPHTKPRP	-0.0963
RRIRHRPPRLPRPRPRPFGIPRP	-0.0887
RRIRMRPPRLPRPRPRPCQYPRP	0.0396
RRIRARPPRLPRPRPRPMDCPRP	0.181
RRIRKRPPRLPRPRPRPIMYPRP	0.0532
RRIRGRPPRLPRPRPRPMRDPRP	0.947
RRIRNRPPRLPRPRPRPLSEPRP	0.0166
RRIRLRPPRLPRPRPRPFCKPRP	-0.101
RRIRQRPPRLPRPRPRPMNNPRP	-0.2
RRIRHRPPRLPRPRPRPPLFPRP	0.169
RRIRRRPPRLPRPRPRPYEEPRP	-0.3
RRIRIRPPRLPRPRPRPLYGPRP	-0.702
RRIRNRPPRLPRPRPRPMHFPRP	-0.145
RRIRGRPPRLPRPRPRPDHMPRP	0.0349
RRIRLRPPRLPRPRPRPWNGPRP	-0.217
RRIRERPPRLPRPRPRPEAKPRP	0.0152
RRIRYRPPRLPRPRPRPLDEPRP	3.09
RRIRKRPPRLPRPRPRPGVNPRP	0.213
RRIRIRPPRLPRPRPRPIKIPRP	-0.0548

Sequence	shrunken log2 fold change
RRIRNRPPRLPRPRPRPMADPRP	0.0252
RRIRHRPPRLPRPRPRPPKTPRP	0.177
RRIRIRPPRLPRPRPRPCCIPRP	-2.25
RRIRMRPPRLPRPRPRPYHYPRP	-0.638
RRIRHRPPRLPRPRPRPFYPPRP	-0.623
RRIRPRPPRLPRPRPRPKMAPRP	-0.0597
RRIRYRPPRLPRPRPRPNTLPRP	-0.704
RRIRFRPPRLPRPRPRPSYHPRP	-0.485
RRIRHRPPRLPRPRPRPQCEPRP	-0.122
RRIRYRPPRLPRPRPRPPETPRP	-0.0226
RRIRARPPRLPRPRPRPPICPRP	-0.0154
RRIRARPPRLPRPRPRPGGRPRP	0.525
RRIRQRPPRLPRPRPRPAQDPRP	0.226
RRIRWRPPRLPRPRPRPGTDPRP	0.216
RRIRFRPPRLPRPRPRPFPFPRP	-0.177
RRIRFRPPRLPRPRPRPDPHPRP	0.137
RRIRCRPPRLPRPRPRPLAGPRP	0.153
RRIRHRPPRLPRPRPRPVFEPRP	-0.153
RRIRMRPPRLPRPRPRPQQMPRP	-0.0302
RRIRQRPPRLPRPRPRPHTHPRP	-0.342
RRIRKRPPRLPRPRPRPWPSPRP	0.0175
RRIRNRPPRLPRPRPRPICAPRP	0.0914
RRIRERPPRLPRPRPRPWCMPRP	-0.533
RRIRFRPPRLPRPRPRPIHFPRP	-0.246
RRIRVRPPRLPRPRPRPEEGPRP	-0.01

Sequence	shrunken log2 fold change
RRIRDRPPRLPRPRPRPEHDPRP	-0.0084
RRIRGRPPRLPRPRPRPNAAPRP	2.21
RRIRRRPPRLPRPRPRPDMCPRP	0.019
RRIRDRPPRLPRPRPRPETDPRP	0.0208
RRIRERPPRLPRPRPRPPWKPRP	0.0356
RRIRHRPPRLPRPRPRPSSKPRP	-0.0453
RRIRYRPPRLPRPRPRPVCLPRP	-0.365
RRIRVRPPRLPRPRPRPCWQPRP	-0.0523
RRIRWRPPRLPRPRPRPWKEPRP	0.162
RRIRTRPPRLPRPRPRPVTCPRP	-0.0382
RRIRNRPPRLPRPRPRPRCLPRP	-0.157
RRIRFRPPRLPRPRPRPSWCPRP	-0.0879
RRIRNRPPRLPRPRPRPKMLPRP	-0.043
RRIRFRPPRLPRPRPRPFAAPRP	0.114
RRIRSRPPRLPRPRPRPDEHPRP	-0.125
RRIRTRPPRLPRPRPRPMKPPRP	-0.0805
RRIRQRPPRLPRPRPRPFGTPRP	-0.1
RRIRVRPPRLPRPRPRPRHFPRP	0.13
RRIRIRPPRLPRPRPRPCFMPRP	-0.378
RRIRARPPRLPRPRPRPCVIPRP	0.158
RRIRGRPPRLPRPRPRPYTGPRP	-0.707
RRIRKRPPRLPRPRPRPYKVPRP	-0.558
RRIRARPPRLPRPRPRPDQVPRP	0.359
RRIRWRPPRLPRPRPRPVIDPRP	0.373
RRIRVRPPRLPRPRPRPALGPRP	0.423

Sequence	shrunken log2 fold change
RRIRRRPPRLPRPRPRPVKGPRP	-0.0795
RRIRTRPPRLPRPRPRPFQEPRP	0.00783
RRIRLRPPRLPRPRPRPAAIPRP	-0.0299
RRIRHRPPRLPRPRPRPIEEPRP	-0.127
RRIRMRPPRLPRPRPRPQSEPRP	0.446
RRIRYRPPRLPRPRPRPGSNPRP	-0.0401
RRIRLRPPRLPRPRPRPWYEPRP	0.0242
RRIRVRPPRLPRPRPRPTTKPRP	-0.162
RRIRTRPPRLPRPRPRPVPWPRP	0.95
RRIRRRPPRLPRPRPRPDWIPRP	-0.223
RRIRLRPPRLPRPRPRPCEHPRP	-0.00776
RRIRRRPPRLPRPRPRPWAQPRP	0.882
RRIRCRPPRLPRPRPRPKPAPRP	0.288
RRIRTRPPRLPRPRPRPYFAPRP	-0.193
RRIRTRPPRLPRPRPRPGGEPRP	0.443
RRIRFRPPRLPRPRPRPIQWPRP	0.0986
RRIRGRPPRLPRPRPRPRHWPRP	0.439
RRIRFRPPRLPRPRPRPSREPRP	1.17
RRIRFRPPRLPRPRPRPHTNPRP	-0.453
RRIRYRPPRLPRPRPRPQQGPRP	-0.34
RRIRWRPPRLPRPRPRPARWPRP	1.07
RRIRWRPPRLPRPRPRPEINPRP	0.267
RRIRKRPPRLPRPRPRPMNDPRP	0.188
RRIRGRPPRLPRPRPRPVDDPRP	0.882
RRIRWRPPRLPRPRPRPCVDPRP	0.0275
